From article PMC11869522, “Competitive displacement of lipoprotein lipase from heparan sulfate is orchestrated by a disordered acidic cluster in GPIHBP1” (Journal of Lipid Research, 2025)

Test system: bLPL
Experiment: PCSK3 cleavage of LPL (SDS-PAGE densitometry)
Type: biochemical, bovine
Settings: 20 μM bLPL, 4 units PCSK3, 2 μM ANGPTL4, no GPIHBP1; 25°C, pH 7.0; 110 min without ANGPTL4
Method: To determine if charge-variants of GPIHBP1 confer distinct resistance to ANGPTL4-facilitated cleavage of LPL after Arg^324 by PCSK3 ([33]), we incubated purified bLPL (20 μM) with PCSK3 (4 units) for 0–240 min, either alone or in the presence of ANGPTL4 (2 μM) and/or GPIHBP1 (25 μM) at 25°C in 10 mM 2-(N-morpholino) ethane sulfonic acid (MES), 150 mM NaCl, 1 mM CaCl2, pH 7.0. We tested four different GPIHBP1 variants: GPIHBP1^1–131, GPIHBP1^Cluster1-neutral, GPIHBP1^Cluster2-neutral, and GPIHBP1^34–131 (LU domain only). PCSK3 cleavage was stopped by boiling in SDS-PAGE sample buffer (reduced and alkylated) and the degree of cleavage was assessed by SDS-PAGE using 12% Bis-Tris SDS-PAGE gels followed by densitometric scanning of the corresponding Coomassie blue–stained SDS-polyacrylamide gels.
Secretion of LPL by adipocytes is modulated in an autocrine manner by ANGPTL4. […] In the presence of endogenous ANGPTL4, a significant fraction of LPL was cleaved by PCSK3 in the trans-Golgi compartment. […] The presence of GPIHBP1 dramatically delayed PCSK3 cleavage of LPL ([33]). To assess the role of the acidic tail in GPIHBP1 on this delay, we incubated 20 μM bLPL with 4 units of PCSK3 either alone or in the presence of 2 μM ANGPTL4. We observed that the presence of sub-stoichiometric amounts of ANGPTL4 reduced the half-life of intact bLPL from 110 min to less than 5 min (Fig. 5A). […] Our results emphasized the essential role of GPIHBP1’s acidic tail in protecting LPL against ANGPTL4-induced cleavage by PCSK3.
Fig. 5 GPIHBP1 reduces ANGPTL4-facillitated PSCK3 cleavage of LPL. 20 μM bLPL was incubated with 4 units of PSCK3 for 0–240 min at 25°C and the extent of LPL cleavage after Arg^324 was assessed by densitometric scanning of Coomassie–blue stained polyacrylamide after SDS-PAGE of reduced and alkylated samples. A: PSCK3 cleavage of LPL is accelerated by the presence of 2 μM ANGPTL4—present at sub-stoichiometric amounts compared to bLPL (20 μM). 25 μM intact GPIHBP1, but not GPIHBP1^34–131 mitigates PSCK3 cleavage of LPL. B: Both GPIHBP1^Cluster1-neutral and GPIHBP1^Cluster2-neutral rescue LPL from cleavage by PSCK3 in the absence of ANGPTL4 and both are more efficient than GPIHBP1^34–131. C: in the presence of 2 μM ANGPTL4, 25 μM GPIHBP1^Cluster1-neutral protects LPL from PSCK3 cleavage more efficiently than the GPIHBP1^Cluster2-neutral, which indicates a more prominent role of acidic cluster 2 in protecting LPL from ANGPTL4-catalyzed unfolding and subsequent PSCK3 cleavage. Shown are the mean values (±SEM) for intact LPL relative to that present at time 0 min for 3–5 independent time-course experiments. Some curves appear in multiple panels to increase clarity.

B1: ANGPTL4: Coiled-coil domain of ANGPTL4 (residues 1–159, N-terminal methionine, C-terminal 6× His-tag) produced in E. coli (protein, UniProt Q9BY76 26-406, looked up)
Angiopoietin-related protein 4: GPVQSKSPRFASWDEMNVLAHGLLQLGQGLREHAERTRSQLSALERRLSACGSACQGTEGSTDLPLAPESRVDPEVLHSLQTQLKAQNSRIQQLFHKVAQQQRHLEKQHLRIQHLQSQFGLLDHKHLDHEVAKPARRKRLPEMAQPVDPAHNVSRLHRLPRDCQELFQVGERQSGLFEIQPQGSPPFLVNCKMTSDGGWTVIQRRHDGSVDFNRPWEAYKAGFGDPHGEFWLGLEKVHSITGDRNSRLAVQLRDWDGNAELLQFSVHLGGEDTAYSLQLTAPVAGQLGATTVPPSGLSVPFSTWDQDHDLRRDKNCAKSLSGGWWFGTCSHSNLNGQYFRSIPQQRQKLKKGIFWKTWRGRYYPLQATTMLIQPMAAEAAS
- half-life of intact bLPL: less than 5 min
